T1: TR2 (Homo sapiens, UniProt P13056)
T1 sequence (P13056 1-603): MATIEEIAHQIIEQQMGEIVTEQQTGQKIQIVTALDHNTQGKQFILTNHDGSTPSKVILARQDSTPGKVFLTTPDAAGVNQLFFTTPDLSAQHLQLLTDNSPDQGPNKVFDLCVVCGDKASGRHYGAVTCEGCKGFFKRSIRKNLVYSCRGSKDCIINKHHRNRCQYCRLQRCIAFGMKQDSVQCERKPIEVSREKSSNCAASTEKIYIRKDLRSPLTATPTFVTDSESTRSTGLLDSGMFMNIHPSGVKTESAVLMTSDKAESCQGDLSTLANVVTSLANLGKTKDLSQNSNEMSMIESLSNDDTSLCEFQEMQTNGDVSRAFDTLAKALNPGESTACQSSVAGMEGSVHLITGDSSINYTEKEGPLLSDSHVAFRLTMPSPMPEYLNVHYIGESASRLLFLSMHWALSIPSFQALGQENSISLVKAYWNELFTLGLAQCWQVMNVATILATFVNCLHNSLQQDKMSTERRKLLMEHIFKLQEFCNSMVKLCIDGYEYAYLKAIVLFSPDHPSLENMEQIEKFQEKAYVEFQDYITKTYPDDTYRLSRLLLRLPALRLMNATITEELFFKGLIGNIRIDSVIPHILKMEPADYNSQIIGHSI

B1: TR4: human testicular orphan nuclear receptor 4, SEQ ID NO:16; expressed from plasmid or in vitro translated (protein)
chain: MTSPSPRIQIISTDSAVASPQRIQGSEPASGPLSVFTSLNKEKIVTDQQTGQKIQIVTAVDASGSPKQQFILTSPDGAGTGKVILASPETSSAKQLIFTTSDNLVPGRIQIVTDSASVERLLGKTDVQRPQVVEYCVVCGDKASGRHYGAVSCEGCKGFFKRSVRKNLTYSCRSSQDCIINKHHRNRCQFCRLKKCLEMGMKMESVQSERKPFDVQREKPSNCAASTEKIYIRKDLRSPLIATPTFVADKDGARQTGLLDPGMLVNIQQPLIREDGTVLLATDSKAETSQGALGTLANVVTSLANLSESLNNGDTSEIQPEDQSASEITRAFDTLAKALNTTDSSSSPSLADGIDTSGGGSIHVISRDQSTPIIEVEGPLLSDTHVTFKLTMPSPMPEYLNVHYICESASRLLFLSMHRARSIPAFQGLGQDCNTSLVRACWNELFTLGLAQCAQVMSLSTILAAIVNHLQNSIQEDKLSGDRIKQVMEHIWKLQEFCNSMANWDIDGYEYAYLKAIVLFSPDHPGLTSTSQIEKFQEKAQMELQDYVQKTYSEDTYRLARILVRLPALRLMSSNITEELFFTGLIGNVSIDSIIPYILKMETAEYNGQITGVSL
B2: TR2: human testicular orphan nuclear receptor 2, 603 amino acids (protein, UniProt P13056 1-603, looked up)
chain: T1 sequence (P13056 1-603)
modifications: full-length
notes: human testicular orphan nuclear receptor 2, 603 amino acids

Key:
Type in all cases: cell-based
pS2 = experiment: Northern blot of pS2 in MCF-7-TR4 cells; details: 2 μg/ml Dox, E2
MCF-7-TR4 cells = experiment: MCF-7 cells growth assay (cell counting); details: MCF-7-TR4 cells (E2 also in MCF-7-pBIG); 10 nM E2; Dox
Description: MCF-7-TR4 and MCF-7-pBIG cells, which were deprived of estrogen by culturing in phenol-free DMEM medium supplement with 10% charcol-stripped FBS for 4 days, were plated at 10^4 cells/well into 24-well plate. […] Cells were trypsinized at the specified time points and counted with a hemocytometer to determine cell density per sample.

cyclin D1 = experiment: Western blot of cyclin D1 in MCF-7-TR4 cells; details: 10 nM E2, Dox
Description: MCF-7-TR4 or MCF-7-pBIG cells were cultured in DMEM containing 10% charcoal dextran-treated FBS for 3 days and then 1×10^6 cells were seeded on 100-mm dishes. […] The lysate protein amount was quantitated by Bradford assay (Bio-Rad, Hercules, Calif.) with bovine serum albumin as a reference standard. One hundred μg protein was loaded and after electrophoresis on 10% SDS-PAGE was transferred onto Immobulin (Milipore, Bedford, Mass.). The membrane was blotted with anti-cyclin D1 rabbit polyclonal Ab (H-295) (Santa Cruz). Alkaline phosphatase conjugated secondary Ab was used.

MCF7-TR2 cells = experiment: Cell cycle profile by flow cytometry, MCF7-TR2 cells; details: 3 days, E2, or E2 with doxycycline-induced TR2
Description: (A) Growth assays were performed by MTT method as instructed by manufacturer (Sigma). 5×10^3 MCF7-pBIG and MCF7-TR2 cells were seeded in 24-well plates and incubated in RPMI with 10% CD-FCS for 48 h. […] After 3- and 5-day treatment, cells were harvested for MTT assay. Data represents the relative folds of MTT O.D.570 values at day 5 divided by that at day 3. […] Cells were then trypsinized and fixed overnight in 70% Ethanol. After cells were incubated with 1 mg/ml RNase A (Sigma) and propidium iodide (Roche Molecular Biochemicals), the DNA contents of cells were measured by a flow cytometry. (C) Percentage of growth suppression by TR2. MCF7-TR2 cells were seeded at 5×10^3 cells per well in 24-well plates. […] The treatments were changed every two days. The indices of cell growth were determined by MTT assay. The MTT values from cells without doxycycline were set as 100% in each kind of treatment. Values are represented by the percentage of growth suppression from cells with doxycycline to that without doxycycline.

TR2 = target: T1, TR2; experiment: TR2-mediated transactivation reporter assay; details: PC-3 cells; 1 μg expression plasmid
Description: Transfections and chloramphenicol acetyltransferase (CAT) assays were performed as described previously. Yeh, & Chang, Proc. Natl. Acad. Sci. 93, 5517-5521 (1996). Briefly, 4×10^5 cells were plated in 60-mm dishes and cultured for 24 h, and then the medium was changed to phenol red free DMEM with 5% charcoal-stripped FCS 2 h before transfection. The cells were co-transfected with TR2 and/or ER expression plasmids with 2 μg of TR2-TK-CAT reporter or 1 μg of ERE-CAT reporter gene plasmid, as indicated in the Figures, by using the calcium phosphate precipitation method. A β-gal actosidase expression plasmid, pCMV-β-gal, was transfected in all transfections as an internal control for normalizing transfection efficiency. The total amount of DNA was adjusted up to 10.5 μg with parent vectors, pSG5 or pCMV in each transcriptional activity assay. […] The cells were then harvested and whole cell extracts were used for CAT assay. The CAT activity was quantitated by Phosphorlmager (Molecular Dynamics). Data are presented as means±S.D. of at least three independent experiments.
The CAT reporter assay was used to study the potential consequence of the formation of heterodimers between the TR2 and ER. […] More specifically, H1299 cells were transiently cotransfected with 2 μg of DR4-TK-CAT reporter plasmid and 3 μg of TR2 expression plasmid together with increasing amounts of the ER expression vector. […] Cells were also transfected with internal control reporter plasmid, pCMV-β-gal, as an internal control for transfection efficiency. Luciferase activity was then analyzed following manufacturer's instructions (Promega). […] Similar results were obtained when the DR4-TK-CAT reporter with DR1-HBV-LUC were replaced, another TR2 response element (FIG. 7C).
This conclusion was further confirmed by using the chimera receptor, TR2-androgen receptor (AR) ARp-TR2, which was generated by swapping TR2 proximal box (P-box) with that found in the AR. […] Luciferase activity was then analyzed following manufacturer's instructions (Promega). […]

Row | Molecule | Expression of ER endogenous target gene pS2 (pS2) | Cell growth (cell number) (MCF-7-TR4 cells) | Cyclin D1 expression (cyclin D1) | Cells in G1 (MCF7-TR2 cells) [%] | Cells in S (MCF7-TR2 cells) [%] | DR1-HBV-LUC activity (TR2)
1 | B1 | repress | repress | suppress | – | – | –
2 | B2 | – | – | – | 58.1 | 14.5 | induced
